Assay results reported in patent US20250339531A1, “DUX4 POLYPEPTIDES AND NUCLEIC ACIDS FOR TREATING INFLAMMATORY AND AUTOIMMUNE CONDITIONS” (Fred Hutchinson Cancer Center, priority 2021, published 2025).

Test system: proteins that co-immunoprecipitated with DUX4-CTD constructs expressed in MB135 myoblasts
Test: LC-MS of proteins co-immunoprecipitated with DUX4-CTD (Table 1) and western validation
Type: binding, human
Set-up: key to 4. mL1dL2 + Dox + IFNG / 4. + IFNG mix / 4. longCTD + Dox + IFNG / 3. + IFNg + Dox longCTD / 3. + Dox longCTD / 3. + IFNG longCTD: peptide-spectrum matches (PSMs) per protein
Conditions: kind of count not given; for 4. + IFNG mix: LC-MS value per protein co-immunoprecipitated from MB135 myoblasts, + IFNG mix sample (no Dox); for 4. mL1dL2 + Dox + IFNG: LC-MS value per protein co-immunoprecipitated with DUX4-CTD construct mL1dL2 in MB135 myoblasts
Procedure, shortened: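 Two independent experiments compared uninduced, doxycycline and doxycycline+IFNG MB135iDUX4-CTD (plus MB135iDUX4mL1dL2) myoblasts. Anti-FLAG pulldowns (3 h, 4 °C) were eluted in LDS buffer for western validation or with FLAG peptide for trypsin digestion and Orbitrap LC-MS; hits needed ≥2 PSMs in both experiments, ranked by total PSMs.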

| Molecule | 4. + IFNG mix | 4. mL1dL2 + Dox + IFNG |
| --- | --- | --- |
| RRBP1 (protein) MDIYDTQTLGVVVFGGFMVVSAIGIFLVSTFSMKETSYEEALANQRKEMAKTHHQKVEKKKKEKTVEKKGKTKKKEEKPNGKIPDHDPAPNVTVLLREPVRAPAVAVAPTPVQPPIIVAPVATVPAMPQEKLASSPKDKKKKEKKVAKVEPAVSSVVNSIQVLTSKAAILETAPKEVPMVVVPPVGAKGNTPATGTTQGKKAEGTQNQSKKAEGAPNQGRKAEGTPNQGKKTEGTPNQGKKAEGTPNQGKKAEGTPNQGKKAEGAQNQGKKVDTTPNQGKKVEGAPTQGRKAEGAQNQAKKVEGAQNQGKKAEGAQNQGKKGEGAQNQGKKAEGAQNQGKKAEGAQNQGKKAEGAQNQGKKAEGAQNQGKKAEGAQNQGKKAEGAQNQGKKVEGAQNQGKKAEGAQNQGKKAEGAQNQGKKAEGAQNQGKKAEGAQNQGKKAEGAQNQGKKAEGAQNQGKKAEGAQNQGKKVEGAQNQGKKAEGAQNQGKKAEGAQNQGKKAEGAQNQGQKGEGAQNQGKKTEGAQGKKAERSPNQGKKGEGAPIQGKKADSVANQGTKVEGITNQGKKAEGSPSEGKKAEGSPNQGKKADAAANQGKKTESASVQGRNTDVAQSPEAPKQEAPAKKKSGSKKKGEPGPPDADGPLYLPYKTLVSTVGSMVFNEGEAQRLIEILSEKAGIIQDTWHKATQKGDPVAILKRQLEEKEKLLATEQEDAAVAKSKLRELNKEMAAEKAKAAAGEAKVKKQLVAREQEITAVQARMQASYREHVKEVQQLQGKIRTLQEQLENGPNTQLARLQQENSILRDALNQATSQVESKQNAELAKLRQELSKVSKELVEKSEAVRQDEQQRKALEAKAAAFEKQVLQLQASHRESEEALQKRLDEVSRELCHTQSSHASLRADAEKAQEQQQQMAELHSKLQSSEAEVRSKCEELSGLHGQLQEARAENSQLTERIRSIEALLEAGQARDAQDVQASQAEADQQQTRLKELESQVSGLEKEAIELREAVEQQKVKNNDLREKNWKAMEALATAEQACKEKLLSLTQAKEESEKQLCLIEAQTMEALLALLPELSVLAQQNYTEWLQDLKEKGPTLLKHPPAPAEPSSDLASKLREAEETQSTLQAECDQYRSILAETEGMLRDLQKSVEEEEQVWRAKVGAAEEELQKSRVTVKHLEEIVEKLKGELESSDQVREHTSHLEAELEKHMAAASAECQNYAKEVAGLRQLLLESQSQLDAAKSEAQKQSDELALVRQQLSEMKSHVEDGDIAGAPASSPEAPPAEQDPVQLKTQLEWTEAILEDEQTQRQKLTAEFEEAQTSACRLQEELEKLRTAGPLESSETEEASQLKERLEKEKKLTSDLGRAATRLQELLKTTQEQLAREKDTVKKLQEQLEKAEDGSSSKEGTSV | 12 | 4 |
| EEF1D (protein) MEAPLGSILSPCPGRAATGRAGTGRVGTGLRPPAVLQLCPLLAFYRCVRKMRSGKASCTLETVWEDKHKYEEAERRFYEHEATQAAASAQQLPAEGPAMNGPGQDDPEDADEAEAPDGGSRRDPRKSQDSRKPLQKKRKRSPKSGLGPADLALLGLSAERVWLDKSLFDQAESSYRQKLADVAAQAAWPPALAPWGLCTHGNQVACHHVTWGIWVNKSSFDQAERAFVEWSQALLLAPDGSRRQGTPNTGQQVAVPDLAHQPSPPVNGQPPLGSLQALVREVWLEKPRYDAAERGFYEALFDGHPPGKVRLQERAGLAEGARRGRRDRRGRNILGNKRAGLRRADGEAPSALPYCYFLQKDAEAPWLSKPAYDSAECRHHAAEALRVAWCLEAASLSHRPGPRSGLSVSSLRPNRKMATNFLAHEKIWFDKFKYDDAERRFYEQMNGPVAGASRQENGASVILRDIARARENIQKSLAGSSGPGASSGTSGDHGELVVRIASLEVENQSLRGVVQELQQAISKLEARLNVLEKSSPGHRATAPQTQHVSPMRQVEPPAKKPATPAEDDEDDDIDLFGSDNEEEDKEAAQLREERLRQYAEKKAKKPALVAKSSILLDVKPWDDETDMAQLEACVRSIQLDGLVWGASKLVPVGYGIRKLQIQCVVEDDKVGTDLLEEEITKFEEHVQSVDIAAFNKI |  | 7 |
| HNRNPM (protein) AAGVEAAAEVAATEIKMEEESGAPGVPSGNGAPGPKGEGERPAQNEKRKEKNIKRGGNRFEPYANPTKRYRAFITNIPFDVKWQSLKDLVKEKVGEVTYVELLMDAEGKSRGCAVVEFKMEESMKKAAEVLNKHSLSGRPLKVKEDPDGEHARRAMQKVMATTGGMGMGPGGPGMITIPPSILNNPNIPNEIIHALQAGRLGSTVFVANLDYKVGWKKLKEVFSMAGVVVRADILEDKDGKSRGIGTVTFEQSIEAVQAISMFNGQLLFDRPMHVKMDERALPKGDFFPPERPQQLPHGLGGIGMGLGPGGQPIDANHLNKGIGMGNIGPAGMGMEGIGFGINKMGGMEGPFGGGMENMGRFGSGMNMGRINEILSNALKRGEIIAKQGGGGGGGSVPGIERMGPGIDRLGGAGMERMGAGLGHGMDRVGSEIERMGLVMDRMGSVERMGSGIERMGPLGLDHMASSIERMGQTMERIGSGVERMGAGMGFGLERMAAPIDRVGQTIERMGSGVERMGPAIERMGLSMERMVPAGMGAGLERMGPVMDRMATGLERMGANNLERMGLERMGANSLERMGLERMGANSLERMGPAMGPALGAGIERMGLAMGGGGGASFDRAIEMERGNFGGSFAGSFGGAGGHAPGVARKACQIFVRNLPFDFTWKMLKDKFNECGHVLYADIKMENGKSKGCGVVKFESPEVAERACRMMNGMKLSGREIDVRIDRNA |  | 3 |
| EEF1A1 (protein) GKEKTHINIVVIGHVDSGKSTTTGHLIYKCGGIDKRTIEKFEKEAAEMGKGSFKYAWVLDKLKAERERGITIDISLWKFETSKYYVTIIDAPGHRDFIKNMITGTSQADCAVLIVAAGVGEFEAGISKNGQTREHALLAYTLGVKQLIVGVNKMDSTEPPYSQKRYEEIVKEVSTYIKKIGYNPDTVAFVPISGWNGDNMLEPSANMPWFKGWKVTRKDGNASGTTLLEALDCILPPTRPTDKPLRLPLQDVYKIGGIGTVPVGRVETGVLKPGMVVTFAPVNVTTEVKSVEMHHEALSEALPGDNVGFNVKNVSVKDVRRGNVAGDSKNDPPMEAAGFTAQVIILNHPGQISAGYAPVLDCHTAHIACKFAELKEKIDRRSGKKLEDGPKFLKSGDAAIVDMVPGKPMCVESFSDYPPLGRFAVRDMRQTVAVGVIKAVDKKAAGAGKVTKSAQKAQKAK | 4 | 3 |
